Reference: the supplement of paper PMC9233669
Variants at the floor of the assay were thinned out.

Tests used:
biotinyl-Phe-oxazolone = assay: self-aminoacylation, catalytic enhancement (BFO) (fold over background); higher = more active; k-Seq, kA / k0A0; sequences stand for … in GGGAAUGGAUCCACAUCUACGAAUUC…UUCACUGCAGACUUGACGAAGCUG
Method in brief: (§1)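 Mutagenized RNA pools with a 21-nt variable region (0.43 μM) reacted with each biotinyl-aminoacyl-oxazolone at 2–1250 μM. Reactions ran in 50 μL HEPES/NaCl/KCl/MgCl2/CaCl2 buffer with 5% acetonitrile, pH 6.9–7.0, for 90 minutes at room temperature. Streptavidin-captured RNA was quantified by triplicate qPCR and Illumina sequencing, and per-sequence fraction reacted was fit to a pseudo-first-order model with 1000 bootstraps. Catalytic enhancement is median kA divided by the uncatalyzed rate, the low-activity peak of a bimodal Gaussian fit.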

biotinyl-Ile-oxazolone = assay: self-aminoacylation, catalytic enhancement (BIO) (fold over background); higher = more active; k-Seq, kA / k0A0; sequences stand for … in GGGAAUGGAUCCACAUCUACGAAUUC…UUCACUGCAGACUUGACGAAGCUG
Method in brief: as §1

biotinyl-Met-oxazolone = assay: self-aminoacylation, catalytic enhancement (BMO) (fold over background); higher = more active; k-Seq, kA / k0A0; sequences stand for … in GGGAAUGGAUCCACAUCUACGAAUUC…UUCACUGCAGACUUGACGAAGCUG
Method in brief: as §1

biotinyl-Val-oxazolone = assay: self-aminoacylation, catalytic enhancement (BVO) (fold over background); higher = more active; k-Seq, kA / k0A0; sequences stand for … in GGGAAUGGAUCCACAUCUACGAAUUC…UUCACUGCAGACUUGACGAAGCUG
Method in brief: as §1

biotinyl-Leu-oxazolone = assay: self-aminoacylation, catalytic enhancement (BLO) (fold over background); higher = more active; k-Seq, kA / k0A0; sequences stand for … in GGGAAUGGAUCCACAUCUACGAAUUC…UUCACUGCAGACUUGACGAAGCUG
Method in brief: as §1

biotinyl-Trp-oxazolone = assay: self-aminoacylation, catalytic enhancement (BWO) (fold over background); higher = more active; k-Seq, kA / k0A0; sequences stand for … in GGGAAUGGAUCCACAUCUACGAAUUC…UUCACUGCAGACUUGACGAAGCUG
Method in brief: as §1

Sequence | self-aminoacylation (biotinyl-Phe-oxazolone) | self-aminoacylation (biotinyl-Ile-oxazolone) | self-aminoacylation (biotinyl-Met-oxazolone) | self-aminoacylation (biotinyl-Val-oxazolone) | self-aminoacylation (biotinyl-Leu-oxazolone) | self-aminoacylation (biotinyl-Trp-oxazolone)
CCACACUUCAAGCAGUCGGUC [Fam1B.1 aminoacylation ribozyme variant] | 1.1 | 0.849 | 0.724 | 0.878 | 0.783 | 0.712
CCACACUUCAAGCAGUCGGUG [Fam1B.1 aminoacylation ribozyme variant] | 18.4 | 2.18 | 2.34 | 2.29 | 3.56 | 2.1
CCACACUUCAAGCAGUCUGUC [Fam1B.1 aminoacylation ribozyme variant] | 0.562 | 0.339 | 0.383 | 0.478 | 0.353 | 0.305
CCACACUUCAAGCAUACGGUC [Fam1B.1 aminoacylation ribozyme variant] | 0.63 | 0.564 | 0.538 | 0.836 | 0.501 | 0.453
CCACACUUCAAGCCAUAGGUC [Fam1B.1 aminoacylation ribozyme variant] | 0.805 | 0.812 | 0.622 | 0.688 | 0.632 | 0.633
CCACACUUCAAGCCAUCGGUA [Fam1B.1 aminoacylation ribozyme variant] | 0.774 | 1.53 | 1.7 | 1.4 | 1.88 | 1.05
CCACACUUCAAGCCAUCUGUC [Fam1B.1 aminoacylation ribozyme variant] | 0.711 | 0.493 | 0.542 | 0.72 | 0.401 | 0.498
CCACACUUCAAGCCGUCGGUC [Fam1B.1 aminoacylation ribozyme variant] | 0.678 | 1.41 | 1.47 | 1.49 | 1.57 | 1
CCACACUUCAAGCUAUAGGUC [Fam1B.1 aminoacylation ribozyme variant] | 0.975 | 0.613 | 0.513 | 0.806 | 0.489 | 0.508
CCACACUUCAAGCUAUCGGUA [Fam1B.1 aminoacylation ribozyme variant] | 0.934 | 1.16 | 0.992 | 1.18 | 1.28 | 1.29
CCACACUUCAAGUAAUCGGGC [Fam1B.1 aminoacylation ribozyme variant] | 1.28 | 1.68 | 1.64 | 1.69 | 1.54 | 1.73
CCACACUUCAAGUAAUCGUUC [Fam1B.1 aminoacylation ribozyme variant] | 0.886 | 0.628 | 0.613 | 0.801 | 0.705 | 0.552
CCACACUUCAAGUAAUGGGUC [Fam1B.1 aminoacylation ribozyme variant] | 0.642 | 0.868 | 1.04 | 0.66 | 0.803 | 0.546
CCACACUUCAAGUUAUCGGUC [Fam1B.1 aminoacylation ribozyme variant] | 0.799 | 1.09 | 1.01 | 1.06 | 1.04 | 1.08
CCACACUUCAAUCAAACGGUC [Fam1B.1 aminoacylation ribozyme variant] | 0.747 | 0.618 | 0.543 | 0.757 | 0.575 | 0.456
CCACACUUCAAUCAAUCGGUC [Fam1B.1 aminoacylation ribozyme variant] | 42.7 | 1.1 | 1.05 | 1.17 | 1.51 | 21.8
CCACACUUCAAUCAAUCGGUG [Fam1B.1 aminoacylation ribozyme variant] | 2.64 | 2.23 | 2.66 | 1.98 | 3.6 | 2.57
CCACACUUCAAUCAAUCGUUC [Fam1B.1 aminoacylation ribozyme variant] | 1.04 | 0.622 | 0.423 | 0.607 | 0.506 | 0.469
CCACACUUCAAUCAAUCUGUC [Fam1B.1 aminoacylation ribozyme variant] | 0.748 | 0.425 | 0.429 | 0.58 | 0.343 | 0.342
CCACACUUCAAUCAAUGGGUC [Fam1B.1 aminoacylation ribozyme variant] | 0.724 | 0.801 | 0.651 | 0.724 | 0.564 | 0.467
CCACACUUCAAUCCAUCGGUC [Fam1B.1 aminoacylation ribozyme variant] | 0.794 | 0.801 | 0.824 | 0.91 | 0.676 | 0.553
CCACACUUCAAUUAAUCGGUC [Fam1B.1 aminoacylation ribozyme variant] | 26.1 | 1.01 | 0.937 | 1.06 | 1.09 | 15.6
CCACACUUCACGCAAUUGGUC [Fam1B.1 aminoacylation ribozyme variant] | 0.859 | 0.951 | 0.667 | 1.03 | 0.957 | 0.792
CCACACUUCACGCUAUCGGUC [Fam1B.1 aminoacylation ribozyme variant] | 1.09 | 1.13 | 1.03 | 1.17 | 0.971 | 0.951
CCACACUUCAGACAAUCGGUC [Fam1B.1 aminoacylation ribozyme variant] | 1.33 | 1.17 | 0.902 | 1.26 | 1.53 | 1.29
CCACACUUCAGGCAAUCGGGC [Fam1B.1 aminoacylation ribozyme variant] | 11 | 2.46 | 1.37 | 3.35 | 2.45 | 2.21

Sequence | self-aminoacylation (biotinyl-Phe-oxazolone) | self-aminoacylation (biotinyl-Ile-oxazolone) | self-aminoacylation (biotinyl-Met-oxazolone) | self-aminoacylation (biotinyl-Val-oxazolone) | self-aminoacylation (biotinyl-Leu-oxazolone) | self-aminoacylation (biotinyl-Trp-oxazolone)
CCACACUUCAGGCAAUCGGUA [Fam1B.1 aminoacylation ribozyme variant] | 1.97 | 1.24 | 1.43 | 1.33 | 1.23 | 1.04
CCACACUUCAGGCAAUCGGUC [Fam1B.1 aminoacylation ribozyme variant] | 1.47 | 1.14 | 1.14 | 1.27 | 1.11 | 1.28
CCACACUUCAGGCAGUCGGUC [Fam1B.1 aminoacylation ribozyme variant] | 0.789 | 1.48 | 1.04 | 1.48 | 1.62 | 1.32
CCACACUUCAGUCAAUCGGUC [Fam1B.1 aminoacylation ribozyme variant] | 1.06 | 1.11 | 1.02 | 0.965 | 1.03 | 1.31
CCACACUUCAUGCAAACGGUC [Fam1B.1 aminoacylation ribozyme variant] | 0.769 | 0.809 | 0.556 | 0.774 | 0.507 | 0.512
CCACACUUCAUGCAAUAGGUC [Fam1B.1 aminoacylation ribozyme variant] | 1.03 | 0.711 | 0.582 | 0.834 | 0.637 | 0.467
CCACACUUCAUGCAAUCGAUC [Fam1B.1 aminoacylation ribozyme variant] | 0.923 | 0.552 | 0.528 | 0.721 | 0.489 | 0.336
CCACACUUCAUGCGAUCGGUC [Fam1B.1 aminoacylation ribozyme variant] | 0.762 | 1.1 | 0.828 | 1.17 | 1.12 | 0.917
CCACACUUCAUUCAAUCGGUC [Fam1B.1 aminoacylation ribozyme variant] | 0.605 | 0.806 | 0.604 | 0.744 | 0.701 | 0.495
CCACACUUCCAGCAAUCGAUC [Fam1B.1 aminoacylation ribozyme variant] | 0.92 | 0.83 | 0.673 | 0.959 | 0.579 | 0.611
CCACACUUCCAGCAAUCGGGC [Fam1B.1 aminoacylation ribozyme variant] | 1.84 | 2 | 1.72 | 2.32 | 1.74 | 2.82
CCACACUUCCAGUAAUCGGUC [Fam1B.1 aminoacylation ribozyme variant] | 0.618 | 1.02 | 0.791 | 1.1 | 0.829 | 0.792
CCACACUUCCCGCAAUCGGUC [Fam1B.1 aminoacylation ribozyme variant] | 0.932 | 1.42 | 1.5 | 1.78 | 1.73 | 1.37
CCACACUUCCGGCAAUCGGUC [Fam1B.1 aminoacylation ribozyme variant] | 5.25 | 1.72 | 2.02 | 2.12 | 1.59 | 2.13
CCACACUUCGAGCAAUAGGUC [Fam1B.1 aminoacylation ribozyme variant] | 0.533 | 0.703 | 0.588 | 0.785 | 0.446 | 0.361
CCACACUUCGAGCAAUCGAUC [Fam1B.1 aminoacylation ribozyme variant] | 0.547 | 0.471 | 0.361 | 0.481 | 0.487 | 0.387
CCACACUUCGAGCAAUCGGAC [Fam1B.1 aminoacylation ribozyme variant] | 0.331 | 0.916 | 0.897 | 1.67 | 0.935 | 0.929
CCACACUUCGAGCAAUCGGUU [Fam1B.1 aminoacylation ribozyme variant] | 0.768 | 1.41 | 1.83 | 1.63 | 1.1 | 1.65
CCACACUUCGAUCAAUCGGUC [Fam1B.1 aminoacylation ribozyme variant] | 0.966 | 0.826 | 0.767 | 0.871 | 0.777 | 0.903
CCACACUUCGGGCAAUCGGUC [Fam1B.1 aminoacylation ribozyme variant] | 9.3 | 2.1 | 2.73 | 3.09 | 2.48 | 2.23
CCACACUUCUAGCAAUCGAUC [Fam1B.1 aminoacylation ribozyme variant] | 0.626 | 0.556 | 0.447 | 0.716 | 0.457 | 0.432
CCACACUUCUAUCAAUCGGUC [Fam1B.1 aminoacylation ribozyme variant] | 0.846 | 0.657 | 0.718 | 0.743 | 0.521 | 0.659
CCACACUUCUGGCAAUCGGUC [Fam1B.1 aminoacylation ribozyme variant] | 1.18 | 1.23 | 1.26 | 1.49 | 1.54 | 0.873
CCACACUUCUUGCAAUCGGUC [Fam1B.1 aminoacylation ribozyme variant] | 0.7 | 0.783 | 0.76 | 0.765 | 0.72 | 0.654
CCACACUUGAAGCAACCGGUC [Fam1B.1 aminoacylation ribozyme variant] | 0.953 | 0.886 | 0.694 | 1.04 | 0.699 | 0.938
